Source: patent publication US20180009892A1 (EUREKA THERAPEUTICS, published 2018)

B1: Antibody 601-14 (antibody, V domains shown)
VH: QVQLVQSGAEVKKPGESLKISCKDSGYSFTNYWLGWVRQMPGKGLEWMGIIYPGDSDTRYSPSFRGQVTISADKSISTAYLQWSSLKASDTAMYYCARLNLATHTAFDIWGQGTTVTVSS
VL: QSVLTQPASVSGSPGQSITISCTGTSSDVGGYNYVSWYQQHPGKAPKLMIYDVSNRPSGVSNRFSGSKSGNTASLTISGLQAEDEADYYCSSYTSSSTLWVFGGGTKLTVLG
B2: P601-51 (scFv, V domains shown)
VH: not shown
VL: QSALTQPASVSGSPGQSITISCTGTSSDFGDYDYVSWYQQHPGKAPKLMIYDVSDRPSGVSNRFSGSKSGNTASLTISGLQAEDEADYFCSSFTTSSTLVFGGGTKLTVLG
B3: P601-37 (scFv, V domains shown)
VH: EVQLVQSGAEVKKPGASVKVSCKASGYTFNNYGFSWVRQAPGQGLEWMGWISVYNGNTNYAQKLQGRVTMTTDTSTSTAYMELRSLRSDDTAVYYCARDYYSDSSGYWDDAFDIWGQGTMVTVSS
VL: AIRMTQSPSSLSASVGDRVTITCQASQDISNYLNWYQQKPGKAPKLLIYAASSLQSGVPSRFSGSGSGTDFTLTISSLQPEDFATYYCQQSYSTPFTFGPGTKVDIK
B4: P601-56 (scFv, V domains shown)
VH: QLQLQESGPGLVKPSETLSLTCTVSGGSISSSSYYWGWIRQPPGKGLEWIGSIYYSGSTYYNPSLKSRVTISVDTSKNQFSLKLGSVTAADTAVYYCARHDGTDAFDIWGQGTTVTVSS
VL: QSVLTQPASVSGSPGQSITISCTGTSSDFGDYDYVSWYQQHPGKAPKLMIYDVSDRPSGVSNRFSGSKSGNTASLTISGLQAEDEADYFCSSLTTSSTLVFGGGTKLTVL

Legend:
[1] = biological target: T1, ROR1 extracellular domain Fc-fusion, dimer (human, UniProt Q01973 30-406); experiment: SPR, immobilised ROR1 dimer, antibody injected, 1:1 model
T1 construct: also called ROR1 dimer; hROR1 dimeric ECD-Fc fusion protein; not shown: Fc part
T1 sequence (Q01973 30-406): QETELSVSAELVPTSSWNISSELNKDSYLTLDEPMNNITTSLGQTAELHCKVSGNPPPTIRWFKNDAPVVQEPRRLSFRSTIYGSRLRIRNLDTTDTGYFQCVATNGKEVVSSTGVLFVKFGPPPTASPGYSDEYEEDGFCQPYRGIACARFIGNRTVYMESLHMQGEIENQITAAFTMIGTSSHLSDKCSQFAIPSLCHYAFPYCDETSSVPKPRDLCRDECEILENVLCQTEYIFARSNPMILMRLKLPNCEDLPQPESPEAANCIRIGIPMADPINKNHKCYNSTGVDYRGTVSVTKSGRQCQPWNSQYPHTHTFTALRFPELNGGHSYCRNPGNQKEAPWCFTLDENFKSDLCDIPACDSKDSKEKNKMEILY
Method: (§1) The binding affinities of ROR1 extracellular domain dimer and monomer for anti-ROR1 antibodies were determined by surface plasmon resonance (SPR). ROR1 extracellular domain Fc-fusion, “dimer,” and ROR1 extracellular domain Fc fusion:Fc heterodimer, “monomer,” are the dimer and monomeric forms of ROR1 used for affinity analysis, respectively. Briefly, ROR1 dimer and monomer were directly immobilized to a CM4 chip using an amine coupling kit and 100 mM ethylenediamine in 100 mM Sodium Borate buffer, pH 8.0 as the blocking reagent. Approximately 100-150 RU of ROR1 dimer and monomer were immobilized on separate flow cells and an un-derivatized flow cell was used as a reference control. […] Dissociation was followed for 180 seconds. The association constant, dissociation constant, and affinity of each anti-ROR1 antibody was calculated using the Biacore T200 Evaluation Software 1:1 binding model.
(§2) Sensorgrams were normalized to 100 RU using the “binding stability point” at the end of the association phase but before the dissociation phase.

[2] = biological target: T2, ROR1 extracellular domain Fc fusion:Fc heterodimer, monomer (human); experiment: SPR, immobilised ROR1 monomer, antibody injected, 1:1 model
T2 construct: Heterodimer of one ROR1 ECD-Fc chain and one Fc chain; also called ROR1 monomer; hROR1 monomeric ECD-Fc fusion protein; not shown: Fc part; Fc alone
T2 sequence (Q01973 30-406, one chain of several): as the sequence (Q01973 30-406) above
Method: as §1, §2

[3] = biological target: T1, ROR1 extracellular domain Fc-fusion, …; experiment: SPR, immobilised ROR1 dimer, antibody injected, 1:1 model; apparent affinity
Method: as §1, §2

[4] = biological target: T1, ROR1 extracellular domain Fc-fusion, …; experiment: SPR, immobilised ROR1 dimer, antibody injected, 1:1 model; second entry of 601-14
Method: as §1, §2

[5] = biological target: T2, ROR1 extracellular domain Fc fusion:Fc …; experiment: SPR, immobilised ROR1 monomer, antibody injected, 1:1 model; second entry of 601-14
Method: as §1, §2

[6] = biological target: T1, ROR1 extracellular domain Fc-fusion, …; experiment: SPR, immobilised ROR1 dimer, antibody injected, 1:1 model; apparent affinity; second entry of 601-14
Method: as §1, §2

mouse ROR1-ECD = biological target: T3, mouse ROR1-ECD (mouse, UniProt Q9Z139 30-406); experiment: phage antibody protein ELISA
T3 construct: extracellular domain; also called mROR1
T3 sequence (Q9Z139 30-406): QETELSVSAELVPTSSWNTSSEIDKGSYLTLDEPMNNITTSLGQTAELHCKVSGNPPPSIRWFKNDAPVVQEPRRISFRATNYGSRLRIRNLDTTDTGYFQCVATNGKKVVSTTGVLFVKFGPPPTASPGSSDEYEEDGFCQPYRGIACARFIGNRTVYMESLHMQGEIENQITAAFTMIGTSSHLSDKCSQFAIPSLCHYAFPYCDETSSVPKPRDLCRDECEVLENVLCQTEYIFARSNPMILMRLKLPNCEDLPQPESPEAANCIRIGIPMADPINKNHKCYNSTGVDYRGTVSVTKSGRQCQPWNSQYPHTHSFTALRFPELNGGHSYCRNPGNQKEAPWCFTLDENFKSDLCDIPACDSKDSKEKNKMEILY
Method: (§3) Binding specificities of the 45 phage antibodies were determined by protein ELISA against human ROR1-ECD, human ROR2-ECD and mouse ROR1-ECD (FIG. 12).

human ROR2-ECD = biological target: T4, human ROR2-ECD (human, UniProt Q01974 34-403); experiment: phage antibody protein ELISA
T4 construct: extracellular domain; also called hROR2
T4 sequence (Q01974 34-403): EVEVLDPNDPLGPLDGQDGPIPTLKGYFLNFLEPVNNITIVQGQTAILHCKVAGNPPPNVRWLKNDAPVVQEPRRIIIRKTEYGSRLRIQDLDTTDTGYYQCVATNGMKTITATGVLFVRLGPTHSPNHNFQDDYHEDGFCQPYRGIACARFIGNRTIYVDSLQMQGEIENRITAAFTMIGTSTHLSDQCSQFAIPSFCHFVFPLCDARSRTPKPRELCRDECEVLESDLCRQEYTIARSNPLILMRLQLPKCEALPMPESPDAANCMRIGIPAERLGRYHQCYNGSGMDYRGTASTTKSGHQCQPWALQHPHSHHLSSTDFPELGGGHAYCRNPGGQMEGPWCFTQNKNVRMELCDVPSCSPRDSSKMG
Method: as §3

[7] = biological target: T5, human ROR1 extracellular domain (ECD) protein (human, UniProt Q01973 30-406); experiment: competitive phage ELISA: soluble ROR1 against ROR1-coated plate
T5 construct: also called hROR1-ECD; human ROR1-ECD
T5 sequence (Q01973 30-406 limits assumed): as the sequence (Q01973 30-406) above
Method: Purified phage antibodies were first diluted serially in PBST buffer, and tested for binding to a ROR1-coated plate. The dilution that gave 50-80% saturating signal was used in the solution binding assay in which phage were first incubated with increasing concentration of ROR1 for one to two hours, and then transferred to a ROR1-coated plate for 10-15 minutes to capture the unbound phage.

| Binder | koff [1] [s⁻¹] | kon [1] [M⁻¹ s⁻¹] | Kd [2] [nM] | koff [2] [s⁻¹] | kon [2] [M⁻¹ s⁻¹] | Kd [3] [nM] | koff [4] [s⁻¹] | kon [4] [M⁻¹ s⁻¹] | Kd [5] [nM] | koff [5] [s⁻¹] | kon [5] [M⁻¹ s⁻¹] | Kd [6] [nM] | binding result (mouse ROR1-ECD) | binding result (human ROR2-ECD) | IC50 [7] [nM] |
| --- | --- | --- | --- | --- | --- | --- | --- | --- | --- | --- | --- | --- | --- | --- | --- |
| B1 | 0.00066 | 2.7e+06 | 0.4 | 0.0013 | 3.2e+06 | 0.2 | 0.0015 | 2.4e+06 | 0.8 | 0.0021 | 2.4e+06 | 0.6 | – | – | – |
| B2 | – | – | – | – | – | – | – | – | – | – | – | – | no binding | no binding | 0.62 |
| B3 | – | – | – | – | – | – | – | – | – | – | – | – | binds | no binding | 27.9 |
| B4 | – | – | – | – | – | – | – | – | – | – | – | – | no binding | no binding | 1.85 |
